Consider two molecules from publication PMC2930068.

Where two headings read alike, the source gives them in different places. Square brackets hold non-standard residues; d marks the D form. Ends that are not written are not given here. pS = N[C@@H](COP(=O)(O)O)C(=O)O

The target of experiment [1] is importin α5 (79-538) in the ITC cell (human) (UniProt P52294). The experiment in a line: ITC. Background: In ITC the heat of successive injections is recorded.
Experiment [2] shares this target. Briefly: ITC. The source holds these as a separate data set.

In experiment [1], KRPRSPSS (not fully specified) [unphosphorylated EBNA-1 NLS peptide (379-KRPRSPSS-386)] registered a Kd of 30 µM and a dH of 6.55 kcal/mol. In addition, the Kd in experiment [2] came to 60 µM.
Molecule KRPRSP[pS]S [phosphorylated EBNA-1 NLS peptide (379-KRPRSPpSS-386)] returned a dH in experiment [1] of 6.95 kcal/mol.

Usually Kd stands for the concentration at which binding is half-saturated. The low end stands for a tighter complex, the high end for a looser complex.
